What was measured:
TA1 antibody = assay: BIAcore surface plasmon resonance binding of PenI:C9 muteins to immobilized TA1; parameters: species or system mouse; conditions: 30 μg/mL injected; relative response of wild type PenI:C9 set to 100%
Description: In order to analyze the different binding of the different PenI:C9 muteins to the TA1 antibody (TA1 was raised from a mouse that had been immunized with F1.2-C9 KLH by standard procedures; F1.2-C9 is the purified factor Xa cleavage product of prothrombin), a biosensor system using surface plasmon resonance detection (BIAcore, Pharmacia Biosensor) has been used. This system records the binding of the antigen to the immobilized TA1 in real time.
TA1 has been chemically immobilized onto the carboxymethylated dextran matrix of the sensor chip (CM5) using the amine coupling kit and the method provided by the manufacturer (Pharmacia Biosensor). For this purpose TA1 was diluted to 57 μg/mL in 10 mM Na-acetate buffer pH4. After activation of the sensor chip with 30 μl of a 1:1 mixture of 11.5 mg/mL N-hydroxysuccinimide (NHS) and 75 mg/ml N-ethyl-N'-(dimethylaminopropyl) carbodiimide (EDC) 5 μL of the TA1 solution was injected at a flow rate of 3 μL/min. […]
Each PenI:C9 and the native PenI protein was injected according to this program and a relative response in RU which represent the amount of penI:C9 mutein bound, was calculated by subtracting the RU of report point 1. from report point 2. Percent of binding was then calculated by setting the relative response of the wild type to 100%. […]

D011 cells = assay: Loading of A20 APC and activation of D011 T cells, IL-2 release ELISA; type: cell-based, murine; conditions: DO11 and A20 cells, 24 hours
Method: The efficacy of a fusion polypeptide of the invention to load APCs and activate T cells was tested. A penI:Ova fusion polypeptide (i.e., a fusion polypeptide containing the penI protein linked to an Ova target peptide) was employed as well as other materials. Three independent experiments were performed utilizing A20 APC and the D011 T cell […] cell line. D011 cells are specifically responsive to Ova loaded major histocompability complex class II (MHCII) molecules presented by A20 APCs. A20 cells were loaded with 5 μg purified penI:Ova fusion polypeptide or 5 μg synthetic Ova peptide (positive control synthesized by Mimetics, Chiron Corp.) for 1 hour. 1×10^5 D011 cells were added and incubated with the loaded A20 cells for 24 hours. The degree of activation of D011 cells was determined by the release of Interleukin 2 (IL-2) into the culture medium. After 24 hours of incubation supernatants were collected and analyzed in an ELISA format for IL-2 (using two anti-IL2 antibodies from Pharmacia).
The following Table summarizes the results of the three experiments and includes several negative controls. One of these controls is a PenI:Ova fusion protein containing the hen egg lysozyme (HEL) peptide preceded by the Factor Xa cleavage recognition site IEGRNLCNIPCSALLSS (SEQ ID NO: 55) and therefore should not stimulate D011 cells.

B1: PenI: penI repressor protein of Bacillus licheniformis without fusion peptide; negative control (protein, UniProt P06555 1-128, looked up)
Penicillinase repressor: MKKIPQISDAELEVMKVIWKHSSINTNEVIKELSKTSTWSPKTIQTMLLRLIKKGALNHHKEGRVFVYTPNIDESDYIEVKSHSFLNRFYNGTLNSMVLNFLENDQLSGEEINELYQILEEHKNRKKE
B1 was tested, and the “Percent of binding to TA1” value (TA1 antibody) was under 5%, the IL-2 release (D011 cells; Experiment 1) was 0 pg/mL and the IL-2 release (D011 cells; Experiment 2) was 0 pg/mL. For the same molecule, the IL-2 release (D011 cells; Experiment 3) was 0 pg/mL.

Reference: patent US5763284A, “Methods for peptide synthesis and purification” (Dade International Inc., priority 1995, dated 1998)
